Test results reported in US20080221021A1, “Novel Corticotropin-Releasing Factor Receptor 1 (Crfr1) Agonist” (Max-Planck-Gesellschaft Zur Forderung Der, priority 2004, published 2008).
Entries after “also recorded” stand apart in the source; their conditions may differ. Where no end group is shown, it is not given here.

What was measured:
rCRFR1 = target: T1, rCRFR1 (Rattus norvegicus, UniProt P35353); assay: Competition binding scintillation proximity assay, rCRFR1 membranes
T1 construct: expressed in transfected cells
T1 sequence (P35353 24-415): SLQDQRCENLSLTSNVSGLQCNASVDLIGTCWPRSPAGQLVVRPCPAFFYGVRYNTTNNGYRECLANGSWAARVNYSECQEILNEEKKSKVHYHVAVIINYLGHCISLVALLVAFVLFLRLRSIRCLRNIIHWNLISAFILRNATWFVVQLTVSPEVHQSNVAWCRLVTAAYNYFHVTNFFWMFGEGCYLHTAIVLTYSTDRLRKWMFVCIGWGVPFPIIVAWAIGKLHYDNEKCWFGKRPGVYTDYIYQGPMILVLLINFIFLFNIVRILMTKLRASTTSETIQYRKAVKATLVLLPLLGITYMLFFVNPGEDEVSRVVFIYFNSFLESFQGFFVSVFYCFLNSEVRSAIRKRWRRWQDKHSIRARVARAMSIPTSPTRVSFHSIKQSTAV
Procedure: Crude membrane fractions were prepared from human embryonic kidney (HEK) 293 cells stably expressing either cloned rat CRFR1α(rCRFR1) or mouse CRFR2β (mCRFR2β) as described (20). Rat CRFBP (rCRFBP) was produced in HEK 293 cells stably transfected with cDNA coding for rCRFBP C-terminally fused with a His6 sequence as described (36). The scintillation proximity assays (SPA) for binding analysis of CRFR and CRFBP have been already described in detail (21, 22). For competition binding assays of rCRFR1 and rCRFBP, [^125I-Tyr^0]h/rCRF was used as radiolabeled peptide, whereas [^125I-Tyr^0]Svg was employed for mCRFR2β.

mCRFR2β = target: T2, mCRFR2β (Mus musculus, UniProt Q60748); assay: Agonist-induced intracellular cAMP accumulation in HEK 293 cells producing mCRFR2β; format: cell-based; conditions: in words
T2 construct: expressed in transfected cells
T2 sequence (Q60748 1-431 isoform Q60748-2): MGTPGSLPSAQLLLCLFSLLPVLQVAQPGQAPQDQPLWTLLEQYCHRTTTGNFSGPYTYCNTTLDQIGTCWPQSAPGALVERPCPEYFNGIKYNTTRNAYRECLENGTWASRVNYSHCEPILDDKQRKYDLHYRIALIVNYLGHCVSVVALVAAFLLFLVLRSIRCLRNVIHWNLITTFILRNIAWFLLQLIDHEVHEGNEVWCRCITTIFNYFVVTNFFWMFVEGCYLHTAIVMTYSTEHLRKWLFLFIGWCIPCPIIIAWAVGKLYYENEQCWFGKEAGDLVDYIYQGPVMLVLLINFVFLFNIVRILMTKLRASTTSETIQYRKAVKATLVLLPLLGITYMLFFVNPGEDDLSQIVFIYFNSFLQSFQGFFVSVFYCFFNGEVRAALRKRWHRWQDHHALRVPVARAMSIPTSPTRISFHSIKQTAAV
Procedure: The biological potency of cortagine and OCRF was evaluated by the determination of the EC50 values for agonist-induced intracellular accumulation of cAMP in HEK 293 cells producing either rCRFR1 or mCRFR2β.
The HEK 293 cells were plated into 24 well cell culture plates and stimulated as described (21) using increasing concentrations of the agonists under investigation. Intracellular cAMP was measured with the Biotrak™ cAMP [^125I] SPA system (Amersham Pharmacia Biotech) according to the manufacturer's product manual.

[1] = Maximum solubility in aCSF by amino acid analysis; format: physicochemical; conditions: pH 7.4
Procedure: After dissolving the peptides in artificial cerebrospinal fluid (aCSF; 124 mM NaCl, 26.4 mM NaHCO3, 10 mM glucose, 3.3 mM KCl, 2.5 mM CaCl2 , 2.4 mM MgSO4 , 1.2 mM KH2PO4) at pH=7.4, the maximum solubility cmax was determined by amino acid analysis as described (21). The isoelectric point of the peptides was determined by isoelectric focusing (IEF) as described (21) with a Bio-Rad IEF cell system using Bio-Rad IEF strips in the pH range 3-10.

C57BL/6J mice [2] = assay: Elevated plus-maze test, intraseptal (i.s.) injection; format: in vivo, mouse; conditions: 100 ng into lateral septum (i.s.), 30 min before EPM, vs aCSF
Procedure: (§1) Nine-week old male C57BL/6J (Centre D'Elevage Janvier, Sultzfeld, France) were individually housed in macrolon cages according to the recommendations of the Society for Laboratory Animal Science (Germany). All experiments were carried out in accordance with the European Council Directive (86/609/EEC) with the permission of the Animal Protection Law enforced by the District Government of Braunschweig, State of Lower Saxony, Germany, which is in full agreement with the APA ethical guidelines. All efforts were made to minimize animal suffering. The number of mice per group was 9-11.
All peptides were dissolved in aCSF except for the CRFR2-selective antagonist antisauvagine-30 (aSvg-30) (20) that was initially dissolved in 10 mM aqueous acetic acid and diluted with the same volume of two-fold concentrated aCSF. The final pH of the peptide solutions was 7.4. The exact peptide concentration of the injection solutions was determined by amino acid analysis with a Beckman HPLC analyzer system 6300. […]
The elevated plus-maze (EPM) behavior of C57BL/6J mice cannulated in the lateral ventricles or lateral intermediate septal area (23) was investigated 30 min after injection of the CRFR1 agonist under investigation for 5 min in the EPM test (24). […] The behavior of the mice was recorded by a video camera connected to a PC and analyzed by the Technical & Scientific Equipment software VIDEOMOT 2. […]

C57BL/6J mice [3] = assay: Forced swim test, i.c.v. injection; format: in vivo, mouse
Procedure: as §1
All peptides were dissolved in aCSF except for the CRFR2-selective antagonist antisauvagine-30 (aSvg-30) (20) that was initially dissolved in 10 mM aqueous acetic acid and diluted with the same volume of two-fold concentrated aCSF. The final pH of the peptide solutions was 7.4. The exact peptide concentration of the injection solutions was determined by amino acid analysis with a Beckman HPLC analyzer system 6300. Total hydrolysis of the peptides was carried out in the presence of 1 nmol norvaline as internal standard with 6 M HCl for 24 h at 100° C.
For the forced swim test (FST), C57BL/6J mice cannulated in the lateral ventricles were subjected to swim sessions in individual glass cylinders (height 39 cm, diameter 21.7 cm) containing water, 15-cm deep, at 23-25° C. On day 1, all animals were placed in the cylinder for a preswim session of 15 min. On the test day 24 h later (day 2), the mice were subjected to a testswim session for 6 min. The water was changed between subjects. All testswim sessions were recorded by a video camera positioned directly above the cylinder. A component observer blind to treatment scored the videotapes. The behavioral measure scored was the duration of immobility, defined as time spent still or only using righting movements to keep the head over water. An increase in immobility time was interpreted as an increase of depression-like behavior. In all behavioral experiments, the cannula placement was confirmed for each mouse by histological examination of the brains after methylene blue injection (23). The behavioral data are expressed as mean±SEM, and were analysed using a two- and one-way ANOVA, with Bonferri/Dunn test applied, post hoc, for individual between-group comparisons at the p<0.05 level of significance.

[Glu^21, Ala^40] [Svg^1-12]x[h/rCRF^14-30]x[Svg^30-40] (XGPPISIDLSLELLREVLEMERAEQLAQQAANNRLLLDTA; X not resolved here; ends and bridges not checked; also: Glx at position 1 not given here (Gln/Glu/pGlu)) [cortagine]
selectivity for CRFR1 (rCRFR1; binding analysis, CRFR1 vs CRFR2, in words): high selectivity for rCRFR1 over mCRFR2β | change in affinity to CRFR1 in comparison to parent peptide (rCRFR1; compound 8 vs compound 6, compound 9 vs compound 8, Nle20 analog vs compound 9): no significant change | CRFR1-selectivity over CRFR2β, IC50(mCRFR2)/IC50(rCRFR1) (rCRFR1; ratio of binding affinities): 208 | biological potency at mCRFR2β compared with rCRFR1 (mCRFR2β): about one to two orders of magnitude lower | maximal solubility cmax [1]: up to 1000 μM | anxiety-like behavior (time spent in open arms, number of open arm entries) (C57BL/6J mice [2]): not | immobility time during the testswim session 24 h later (day 2) (C57BL/6J mice [3]; 300 ng i.c.v. 30 min before preswim (day 1)): significantly reduced immobility time in comparison to oCRF-injected mice; also recorded: decrease of the immobility lime; also recorded: significant decrease | immobility time during the preswim session (C57BL/6J mice [3]; 300 ng i.c.v. 30 min before preswim (day 1), vs aCSF): significantly decreased the immobility time | immobility time during the testswim session (C57BL/6J mice [3]; 300 ng i.c.v. 30 min before testswim (day 2), vs aCSF): significantly decreased the immobility time | floating time in the FST (C57BL/6J mice [3]; mice): reduced significantly
